Tests used:
[1] = target: T1, human interferon gamma (hIFNγ) (human, UniProt P01579 24-166, limits assumed); experiment: SPR (Biacore), INFγ immobilised, IgG injected
T1 construct: also called INFγ
T1 sequence (looked up): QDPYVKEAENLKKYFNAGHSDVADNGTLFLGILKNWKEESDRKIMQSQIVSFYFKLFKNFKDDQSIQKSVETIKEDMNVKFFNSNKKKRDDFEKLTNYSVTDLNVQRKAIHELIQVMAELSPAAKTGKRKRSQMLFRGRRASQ
Protocol: (§1) FIGS. 12A and 12B are a series of illustrations and graphs depicting SPR analysis of IgGκλ bispecific antibodies. In FIG. 12A, INFγ was immobilized at the surface of the Biacore chip and anti-IL6RC monospecific antibody ([…]), anti-INFγ monospecific antibody (IgGλ) and, anti-IL6RC/anti-INFγ bispecific antibody (IgGκλ) were injected on the surface followed by injection of IL6RC. In FIG. 12B, the anti-IL6RC/anti-INFγ bispecific antibody (IgGκλ) was immobilized on the chip surface and anti human-Kappa and anti-human Lambda antibodies were injected at the same concentration. The experiment was repeated inverting the order of antibody injection with identical results.
(§2) The capacity of the bispecific IgGκλ to interact with both targets simultaneously was tested by SPR. Biotinylated INFγ was immobilized on streptavidin coating CM5 Biacore chip. The monospecific and the bispecific antibodies were injected on this surface followed by injection of IL6RC. […] SPR was also used to assess the relative amounts of Kappa and Lambda light chains in the purified bispecific antibody. IgGκλ was directly immobilized via amine coupling on the surface of a CM5 Biacore chip and an anti-human CKappa antibody was injected followed by an anti-human CLambda antibody at the same concentration.

[2] = target: T1, human interferon gamma (hIFNγ); experiment: SPR, Biacore 2000, IgG captured on anti-human IgG, antigen as analyte, 1:1 Langmuir fit
Protocol: The affinity and binding kinetics of monospecific anti-INFγ IgGλ, the anti-IL6RC IgGκ and the bispecific IgGκλ antibodies were characterized on a Biacore 2000 instrument (Biacore AB, Uppsala, Sweden). 200RU of a goat anti-human polyclonal IgG (ahIgG; Biacore) were immobilized by EDC/NHS chemistry on a CM5 Biacore chip. This surface was used to capture monospecific or bispecific human IgG. The surface was regenerated after each cycle by injection of 10 mM glycine pH=1.5 at 30 μL/min, for 30 s followed by 1 min of stabilization time in HBS-EP buffer. […] Similar affinity values were obtained for the monospecific antibodies and the bispecific IgGκλ antibodies.

[3] = target: T2, hIL6 Receptor Complex (IL-6/IL-6R receptor complex) (human, UniProt P08887 20-358; P05231 30-212, limits assumed); experiment: SPR (Biacore), INFγ immobilised, IgGλ injected, then IL6RC injected
T2 construct: also called IL6RC; hIL6RC
Protocol: as §1, §2

B1: monospecific anti-IL6RC IgGκ antibody (antibody, V domains shown)
VH: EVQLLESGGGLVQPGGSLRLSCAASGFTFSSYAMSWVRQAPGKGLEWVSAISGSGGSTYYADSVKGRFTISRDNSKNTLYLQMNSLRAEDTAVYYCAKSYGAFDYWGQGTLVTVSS
VL: EIVLTQSPATLSLSPGERATLSCRASQSVSSYLAWYQQKPGQAPRLLIYDASNRATGIPARFSGSGSGTDFTLTISSLEPEDFAVYYCQQWLPTTPATFGQGTKVEIKR
notes: also called IgGκκ; mono κ
binding result [1]: no binding

B2: anti-IL6RC/anti-INFγ bispecific IgGκλ antibody (bispecific antibody)
heavy: not shown
light 1: not shown
light 2: NFMLTQPHSVSESPGKTVTISCTRSSGSIASNYVQWYQQRPGSSPTTVIYEDNQRPSGVPDRFSGSIDSSSNSASLTISGLKTEDEADYYCQSQSWDGNHIVFGGGTKLTVLGQPKAAPSVTLFPPSSEELQANKATLVCLISDFYPGAVTVAWKADSSPVKAGVETTTPSKQSNNKYAASSYLSLTPEQWKSHRSYSCQVTHEGSTVEKTVAPTECS
notes: also called κλ-body; κλ body
Kd [2]: 0.184 nM | koff [2]: 0.000169 s⁻¹ | kon [2]: 919000 M⁻¹ s⁻¹

B3: monospecific anti-INFγ IgGλ antibody (antibody, V domains shown)
VH: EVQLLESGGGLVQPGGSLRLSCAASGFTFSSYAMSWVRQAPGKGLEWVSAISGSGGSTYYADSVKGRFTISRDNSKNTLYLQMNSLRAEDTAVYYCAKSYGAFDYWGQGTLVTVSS
VL: NFMLTQPHSVSESPGKTVTISCTRSSGSIASNYVQWYQQRPGSSPTTVIYEDNQRPSGVPDRFSGSIDSSSNSASLTISGLKTEDEADYYCQSQSWDGNHIVFGGGTKLTVLG
notes: also called IgGλλ; mono λ
Kd [2]: 0.196 nM | koff [2]: 0.000119 s⁻¹ | kon [2]: 608000 M⁻¹ s⁻¹ | binding result [3]: no binding
